Measured values published in patent US20240318160A1.

Columns and labels:
Assay in all cases: TAL and PAL enzyme kinetics
[1] = tested on: N[C@@H](Cc1ccc(O)cc1)C(=O)O; assay type: biochemical, Brachypodium distachyon; conditions: other: TAL assay (L-Tyr), pH 8.5, 30° C.
Description: (§1) All substrate solutions were prepared with 0.01 N NaOH to increase the solubility of L-Tyr. A mixture containing 100 mM Tris-HCl (pH 8.5), 1% glycerol, and purified enzyme in a total volume of 50 μl was preincubated for 3 min at 30° C. PAL and TAL reactions were started by addition of 50 μl of 1 mM substrate (L-Phe or L-Tyr, respectively) and were incubated at 30° C. for 20 min unless otherwise noted. The reactions were terminated by addition of 6N acetic acid (10 μl).
(§2) The kinetic parameters of the recombinant enzymes were determined using HPLC. Reaction mixtures containing 100 mM Tris-HCl (pH 8.5), 1% glycerol, and purified enzyme (0.15 μg for PAL assay and 1 μg for TAL assay) in a 50 μl total volume were preincubated for 3 min at 30° C. PAL and TAL reactions were started by addition of 50 μl substrate solution prepared with 0-4 mM L-Phe and 0-2 mM L-Tyr. After 10 min and 20 min incubations for PAL and TAL assay, respectively, at 30° C., the reaction was terminated by addition of 6N acetic acid (10 μl). […] The products were quantified using calibration curves generated using authentic standards. Non-linear hyperbolic regression analyses were conducted using the Excel Solver tool to calculate Km and Vmax values.

N[C@@H](Cc1ccccc1)C(=O)O [2] = assay type: biochemical, Brachypodium distachyon; conditions: other: PAL assay (L-Phe), pH 8.5, 30° C.
Description: as §1, §2

N[C@@H](Cc1ccccc1)C(=O)O [3] = assay type: biochemical, Sorghum bicolor; conditions: other: PAL assay (L-Phe), pH 8.5, 30° C.
Description: (§3) The kinetic parameters of the recombinant enzymes were determined using HPLC. Reaction mixtures containing 100 mM Tris-HCl (pH 8.5), 1% glycerol, and purified enzyme (0.15 μg for PAL assay and 1 μg for TAL assay) in a 50 μl total volume were preincubated for 3 min at 30° C. […] After 10 min and 20 min incubations for PAL and TAL assay, respectively, at 30° C., the reaction was terminated by addition of 6N acetic acid (10 μl). […] The products were quantified using calibration curves generated using authentic standards. Non-linear hyperbolic regression analyses were conducted using the Excel Solver tool to calculate Km and Vmax values.
N[C@@H](Cc1ccccc1)C(=O)O [4] = assay type: biochemical, Arabidopsis thaliana; conditions: other: PAL assay (L-Phe), pH 8.5, 30° C.
Description: (§4) A mixture containing 100 mM Tris-HCl (pH 8.5), 1% glycerol, and purified enzyme in a total volume of 50 μl was preincubated for 3 min at 30° C. […] The reactions were terminated by addition of 6N acetic acid (10 μl).
as §3

[5] = tested on: N[C@@H](Cc1ccc(O)cc1)C(=O)O; assay type: biochemical, Sorghum bicolor; conditions: other: TAL assay (L-Tyr), pH 8.5, 30° C.
Description: as §1, §2

N[C@@H](Cc1ccccc1)C(=O)O [6] = assay type: biochemical, Sorghum bicolor; conditions: other: PAL assay (L-Phe), pH 8.5, 30° C.; remark: listed apart in the source
Description: as §1, §2

N[C@@H](Cc1ccccc1)C(=O)O [7] = assay type: biochemical, Brachypodium distachyon; conditions: other: PAL assay (L-Phe), pH 8.5, 30° C.; remark: listed apart in the source
Description: as §3

[8] = tested on: N[C@@H](Cc1ccc(O)cc1)C(=O)O; assay type: biochemical, Arabidopsis thaliana; conditions: other: TAL assay (L-Tyr), pH 8.5, 30° C.
Description: as §4, §3

Sequence of Brachypodium distachyon BdPTAL, wild type (Brachypodium distachyon) (chain, as listed by the source): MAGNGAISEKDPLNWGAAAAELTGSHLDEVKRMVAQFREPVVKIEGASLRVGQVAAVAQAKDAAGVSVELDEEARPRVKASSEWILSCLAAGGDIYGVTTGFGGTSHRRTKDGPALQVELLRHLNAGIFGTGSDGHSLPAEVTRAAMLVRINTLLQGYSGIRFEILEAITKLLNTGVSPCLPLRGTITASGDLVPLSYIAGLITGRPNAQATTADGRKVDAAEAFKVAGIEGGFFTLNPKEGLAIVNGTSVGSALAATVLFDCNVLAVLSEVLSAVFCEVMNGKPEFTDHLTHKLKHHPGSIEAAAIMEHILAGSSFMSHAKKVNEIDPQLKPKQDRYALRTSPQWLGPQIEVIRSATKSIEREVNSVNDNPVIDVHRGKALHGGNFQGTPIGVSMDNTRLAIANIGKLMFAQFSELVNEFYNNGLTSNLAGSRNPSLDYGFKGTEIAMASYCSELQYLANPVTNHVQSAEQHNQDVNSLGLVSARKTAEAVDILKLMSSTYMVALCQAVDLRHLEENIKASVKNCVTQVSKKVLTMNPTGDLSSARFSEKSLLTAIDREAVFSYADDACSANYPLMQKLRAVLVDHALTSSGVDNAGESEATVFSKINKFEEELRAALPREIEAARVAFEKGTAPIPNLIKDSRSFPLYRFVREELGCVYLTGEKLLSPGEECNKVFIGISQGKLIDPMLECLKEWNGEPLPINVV
Sequence of Arabidopsis thaliana AtPAL1 variant F144H (AtPAL1^F144H), SEQ ID NO: 261 (Arabidopsis thaliana; F144H) (chain, as listed by the source F144H F144H F144H): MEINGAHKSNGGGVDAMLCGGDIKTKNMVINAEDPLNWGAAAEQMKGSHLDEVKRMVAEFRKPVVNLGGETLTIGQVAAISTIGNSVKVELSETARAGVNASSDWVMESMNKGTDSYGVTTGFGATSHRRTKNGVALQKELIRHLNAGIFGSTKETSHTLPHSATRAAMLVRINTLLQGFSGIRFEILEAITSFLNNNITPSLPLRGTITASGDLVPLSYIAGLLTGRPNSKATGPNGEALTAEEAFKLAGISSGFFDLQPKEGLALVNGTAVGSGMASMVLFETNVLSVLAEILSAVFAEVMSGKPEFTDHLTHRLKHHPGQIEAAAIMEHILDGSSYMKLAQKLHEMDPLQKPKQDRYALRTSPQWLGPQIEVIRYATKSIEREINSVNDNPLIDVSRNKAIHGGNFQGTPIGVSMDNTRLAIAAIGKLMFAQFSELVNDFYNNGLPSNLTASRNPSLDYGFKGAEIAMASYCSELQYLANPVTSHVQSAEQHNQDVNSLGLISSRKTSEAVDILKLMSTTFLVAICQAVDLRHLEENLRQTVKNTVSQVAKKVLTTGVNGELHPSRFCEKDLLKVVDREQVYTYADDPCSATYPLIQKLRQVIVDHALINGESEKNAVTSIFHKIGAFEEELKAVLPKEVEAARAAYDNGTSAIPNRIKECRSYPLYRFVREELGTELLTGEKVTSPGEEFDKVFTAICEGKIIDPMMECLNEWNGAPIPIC
Sequence of Brachypodium distachyon BdPTAL variant H123F (BdPTAL^H123F) (Brachypodium distachyon; H123F) (chain, as listed by the source H123F H123F H123F): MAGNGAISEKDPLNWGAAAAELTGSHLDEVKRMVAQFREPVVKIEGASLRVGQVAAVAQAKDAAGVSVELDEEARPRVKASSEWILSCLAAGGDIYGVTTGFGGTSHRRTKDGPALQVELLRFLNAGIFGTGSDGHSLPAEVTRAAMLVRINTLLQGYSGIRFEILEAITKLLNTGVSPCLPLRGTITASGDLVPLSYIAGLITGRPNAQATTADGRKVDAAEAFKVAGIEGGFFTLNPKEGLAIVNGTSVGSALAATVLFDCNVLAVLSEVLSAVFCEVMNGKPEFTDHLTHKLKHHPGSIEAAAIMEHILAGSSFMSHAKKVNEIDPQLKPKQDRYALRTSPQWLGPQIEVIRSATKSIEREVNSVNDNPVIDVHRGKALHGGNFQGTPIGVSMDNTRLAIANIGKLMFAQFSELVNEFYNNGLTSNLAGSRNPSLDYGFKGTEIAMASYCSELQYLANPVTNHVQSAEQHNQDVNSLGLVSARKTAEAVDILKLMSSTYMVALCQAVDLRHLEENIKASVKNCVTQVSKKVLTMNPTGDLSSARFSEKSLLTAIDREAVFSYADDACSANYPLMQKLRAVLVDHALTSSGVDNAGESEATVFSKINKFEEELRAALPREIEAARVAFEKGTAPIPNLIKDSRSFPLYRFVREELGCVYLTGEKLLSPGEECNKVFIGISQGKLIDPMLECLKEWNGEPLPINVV
Sequence of Sorghum bicolor SbPTAL variant H123F (SbPTAL^H123F) (Sorghum bicolor; H123F) (chain, as listed by the source H123F H123F H123F): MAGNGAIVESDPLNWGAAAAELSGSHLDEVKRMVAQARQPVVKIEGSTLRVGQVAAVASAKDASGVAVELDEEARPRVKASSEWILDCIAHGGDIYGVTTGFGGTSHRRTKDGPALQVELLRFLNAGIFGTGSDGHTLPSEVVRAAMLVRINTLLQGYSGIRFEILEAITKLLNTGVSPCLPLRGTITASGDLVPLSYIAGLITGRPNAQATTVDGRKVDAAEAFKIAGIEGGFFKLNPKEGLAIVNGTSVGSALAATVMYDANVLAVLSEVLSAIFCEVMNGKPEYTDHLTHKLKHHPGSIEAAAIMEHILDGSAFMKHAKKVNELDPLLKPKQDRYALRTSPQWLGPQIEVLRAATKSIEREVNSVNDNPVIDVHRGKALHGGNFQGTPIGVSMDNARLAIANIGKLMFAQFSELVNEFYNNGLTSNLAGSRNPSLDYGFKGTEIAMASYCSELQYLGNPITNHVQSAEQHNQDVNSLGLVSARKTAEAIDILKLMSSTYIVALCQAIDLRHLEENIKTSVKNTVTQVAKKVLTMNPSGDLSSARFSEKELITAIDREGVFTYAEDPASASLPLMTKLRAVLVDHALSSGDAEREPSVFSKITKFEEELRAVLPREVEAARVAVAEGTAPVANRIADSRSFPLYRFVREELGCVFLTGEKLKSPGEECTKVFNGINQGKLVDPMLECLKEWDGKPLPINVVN
Sequence of Sorghum bicolor SbPTAL, wild type (Sorghum bicolor) (chain, as listed by the source): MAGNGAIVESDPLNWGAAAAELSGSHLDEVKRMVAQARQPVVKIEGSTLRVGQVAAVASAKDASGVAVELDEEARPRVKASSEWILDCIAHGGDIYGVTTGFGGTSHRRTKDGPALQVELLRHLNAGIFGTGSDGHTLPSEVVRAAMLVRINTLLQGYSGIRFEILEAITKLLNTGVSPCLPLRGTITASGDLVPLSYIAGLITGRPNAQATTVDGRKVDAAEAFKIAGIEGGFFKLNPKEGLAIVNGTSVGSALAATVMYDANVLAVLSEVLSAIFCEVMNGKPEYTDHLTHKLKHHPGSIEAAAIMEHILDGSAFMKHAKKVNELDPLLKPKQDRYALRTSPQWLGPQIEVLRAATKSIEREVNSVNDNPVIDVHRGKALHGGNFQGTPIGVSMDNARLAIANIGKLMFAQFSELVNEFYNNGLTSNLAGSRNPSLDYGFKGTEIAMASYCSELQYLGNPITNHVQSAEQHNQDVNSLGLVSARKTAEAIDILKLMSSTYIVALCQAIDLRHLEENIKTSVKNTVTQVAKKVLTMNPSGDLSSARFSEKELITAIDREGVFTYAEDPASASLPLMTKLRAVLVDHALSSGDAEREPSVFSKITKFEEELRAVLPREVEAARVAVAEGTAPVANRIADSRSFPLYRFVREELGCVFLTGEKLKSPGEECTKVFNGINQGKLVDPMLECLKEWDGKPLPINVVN
Sequence of Arabidopsis thaliana AtPAL1 variant S114I (as printed in Table 3; AtPAL1^S116I, SEQ ID NO: 260, elsewhere) (Arabidopsis thaliana; S116I) (chain, as listed by the source S114I S116I S116I): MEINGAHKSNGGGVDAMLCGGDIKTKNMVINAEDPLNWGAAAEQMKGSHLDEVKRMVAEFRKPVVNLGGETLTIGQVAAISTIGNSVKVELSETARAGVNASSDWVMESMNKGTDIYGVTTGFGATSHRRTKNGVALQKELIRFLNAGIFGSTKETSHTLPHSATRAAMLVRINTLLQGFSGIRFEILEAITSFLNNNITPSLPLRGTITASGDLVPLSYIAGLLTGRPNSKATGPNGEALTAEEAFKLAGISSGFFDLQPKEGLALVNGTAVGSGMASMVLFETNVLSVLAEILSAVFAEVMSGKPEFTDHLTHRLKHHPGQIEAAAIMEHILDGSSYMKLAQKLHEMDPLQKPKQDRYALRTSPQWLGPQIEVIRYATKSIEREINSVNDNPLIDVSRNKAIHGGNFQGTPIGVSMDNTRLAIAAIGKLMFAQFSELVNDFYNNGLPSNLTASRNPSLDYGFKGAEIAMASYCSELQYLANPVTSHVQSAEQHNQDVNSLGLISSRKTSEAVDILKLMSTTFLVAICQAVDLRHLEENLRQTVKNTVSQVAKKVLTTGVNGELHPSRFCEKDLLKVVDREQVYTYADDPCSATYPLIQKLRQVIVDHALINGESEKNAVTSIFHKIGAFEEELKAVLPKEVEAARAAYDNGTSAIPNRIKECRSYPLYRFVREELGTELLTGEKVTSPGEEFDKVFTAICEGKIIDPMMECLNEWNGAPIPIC
Sequence of Arabidopsis thaliana AtPAL1, wild type, SEQ ID NO: 144 (Arabidopsis thaliana) (chain, as listed by the source): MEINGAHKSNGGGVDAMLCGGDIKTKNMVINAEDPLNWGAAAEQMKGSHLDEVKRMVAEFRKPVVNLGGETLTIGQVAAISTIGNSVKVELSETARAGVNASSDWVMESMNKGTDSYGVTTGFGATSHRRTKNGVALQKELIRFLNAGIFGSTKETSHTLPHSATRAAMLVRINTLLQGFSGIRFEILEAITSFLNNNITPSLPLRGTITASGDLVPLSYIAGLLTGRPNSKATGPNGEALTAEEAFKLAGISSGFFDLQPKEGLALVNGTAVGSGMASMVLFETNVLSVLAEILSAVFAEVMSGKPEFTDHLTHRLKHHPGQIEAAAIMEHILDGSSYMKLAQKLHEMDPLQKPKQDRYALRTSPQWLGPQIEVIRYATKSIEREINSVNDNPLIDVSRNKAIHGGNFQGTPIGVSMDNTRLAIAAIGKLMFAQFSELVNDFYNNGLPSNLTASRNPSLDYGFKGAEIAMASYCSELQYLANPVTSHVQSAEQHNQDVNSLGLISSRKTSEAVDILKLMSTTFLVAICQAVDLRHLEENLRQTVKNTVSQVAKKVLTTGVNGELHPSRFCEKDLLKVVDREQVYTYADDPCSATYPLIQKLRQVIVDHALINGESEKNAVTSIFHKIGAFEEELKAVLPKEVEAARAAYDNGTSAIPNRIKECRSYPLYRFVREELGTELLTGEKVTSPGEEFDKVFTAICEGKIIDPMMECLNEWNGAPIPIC

Substance: Brachypodium distachyon BdPTAL variant H123F (BdPTAL^H123F) (Brachypodium distachyon; H123F)
- Km [1]: 765.2 ± 65.8 µM
- kcat [1]: 0.03 ± 0.00 s⁻¹
- kcat/Km [1]: 40 ± 0 M⁻¹ s⁻¹
- Km (N[C@@H](Cc1ccccc1)C(=O)O [2]): 6.0 ± 1.4 µM
- kcat (N[C@@H](Cc1ccccc1)C(=O)O [2]): 0.17 ± 0.00 s⁻¹
- kcat/Km (N[C@@H](Cc1ccccc1)C(=O)O [2]): 29920 ± 6750 M⁻¹ s⁻¹

Substance: Sorghum bicolor SbPTAL, wild type (Sorghum bicolor)
- Km (N[C@@H](Cc1ccccc1)C(=O)O [3]): 150.1 ± 14.4 µM
- kcat (N[C@@H](Cc1ccccc1)C(=O)O [3]): 0.69 ± 0.01 s⁻¹
- kcat/Km (N[C@@H](Cc1ccccc1)C(=O)O [3]): 4630 ± 490 M⁻¹ s⁻¹

Substance: Arabidopsis thaliana AtPAL1, wild type, SEQ ID NO: 144 (Arabidopsis thaliana)
- Km (N[C@@H](Cc1ccccc1)C(=O)O [4]): 52.2 ± 3.1 µM
- kcat (N[C@@H](Cc1ccccc1)C(=O)O [4]): 1.42 ± 0.07 s⁻¹
- kcat/Km (N[C@@H](Cc1ccccc1)C(=O)O [4]): 27310 ± 850 M⁻¹ s⁻¹

Substance: Sorghum bicolor SbPTAL variant H123F (SbPTAL^H123F) (Sorghum bicolor; H123F)
- Km [5]: 750.7 ± 36.8 µM
- kcat [5]: 0.03 ± 0.00 s⁻¹
- kcat/Km [5]: 40 ± 0 M⁻¹ s⁻¹
- Km (N[C@@H](Cc1ccccc1)C(=O)O [6]): 3.8 ± 2.0 µM
- kcat (N[C@@H](Cc1ccccc1)C(=O)O [6]): 0.10 ± 0.00 s⁻¹
- kcat/Km (N[C@@H](Cc1ccccc1)C(=O)O [6]): 30970 ± 13700 M⁻¹ s⁻¹

Substance: Brachypodium distachyon BdPTAL, wild type (Brachypodium distachyon)
- Km (N[C@@H](Cc1ccccc1)C(=O)O [7]): 216.6 ± 10.3 µM
- kcat (N[C@@H](Cc1ccccc1)C(=O)O [7]): 1.05 ± 0.05 s⁻¹
- kcat/Km (N[C@@H](Cc1ccccc1)C(=O)O [7]): 4840 ± 110 M⁻¹ s⁻¹

Substance: Arabidopsis thaliana AtPAL1 variant F144H/S114I (as printed in Table 3; AtPAL1^F144H_S116I, SEQ ID NO: 146, elsewhere) (Arabidopsis thaliana; F144H/S116I)
- Km (N[C@@H](Cc1ccccc1)C(=O)O [4]): 87.3 ± 2.9 µM
- kcat (N[C@@H](Cc1ccccc1)C(=O)O [4]): 0.88 ± 0.01 s⁻¹
- kcat/Km (N[C@@H](Cc1ccccc1)C(=O)O [4]): 10070 ± 440 M⁻¹ s⁻¹

Substance: Arabidopsis thaliana AtPAL1 variant S114I (as printed in Table 3; AtPAL1^S116I, SEQ ID NO: 260, elsewhere) (Arabidopsis thaliana; S116I)
- Km [8]: 515.4 ± 54.3 µM
- kcat [8]: 0.02 ± 0.00 s⁻¹
- kcat/Km [8]: 40 ± 0 M⁻¹ s⁻¹
- Km (N[C@@H](Cc1ccccc1)C(=O)O [4]): 10.1 ± 1.9 µM
- kcat (N[C@@H](Cc1ccccc1)C(=O)O [4]): 0.23 ± 0.00 s⁻¹
- kcat/Km (N[C@@H](Cc1ccccc1)C(=O)O [4]): 23710 ± 4630 M⁻¹ s⁻¹

Substance: Arabidopsis thaliana AtPAL1 variant F144H (AtPAL1^F144H), SEQ ID NO: 261 (Arabidopsis thaliana; F144H)
- Km (N[C@@H](Cc1ccccc1)C(=O)O [4]): 1198.9 ± 21.1 µM
- kcat (N[C@@H](Cc1ccccc1)C(=O)O [4]): 1.58 ± 0.04 s⁻¹
- kcat/Km (N[C@@H](Cc1ccccc1)C(=O)O [4]): 1320 ± 20 M⁻¹ s⁻¹
